In patent US20190030120A1 (ACADEMIA SINICA, published 2019):

Experiments:
Aurora A = target: T1, Aurora A (UniProt O14965 1-403); assay: immunoprecipitation of Aurora A from lysates of 293T cells transfected with HA-tagged TIFA, western blot
T1 construct: In the kinase assay it was present in 293T cell extracts, not purified; also called Aurora A kinase
T1 sequence (looked up): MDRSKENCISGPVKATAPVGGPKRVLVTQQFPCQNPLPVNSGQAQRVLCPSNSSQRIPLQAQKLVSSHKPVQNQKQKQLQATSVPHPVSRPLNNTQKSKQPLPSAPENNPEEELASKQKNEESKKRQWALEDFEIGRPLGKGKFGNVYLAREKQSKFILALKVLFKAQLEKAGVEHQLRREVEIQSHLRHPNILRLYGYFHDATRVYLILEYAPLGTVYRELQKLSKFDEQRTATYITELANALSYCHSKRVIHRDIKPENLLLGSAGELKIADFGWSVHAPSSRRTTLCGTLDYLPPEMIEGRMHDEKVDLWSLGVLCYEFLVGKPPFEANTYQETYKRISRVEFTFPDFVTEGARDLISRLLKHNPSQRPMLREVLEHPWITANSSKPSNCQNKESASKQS
Method: After 48 h, cells were treated with or without 10 ng/mL TNF-α (R&D Systems) for 30 min, washed by PBS, and lysed with CHAPS lysis buffer (20 mM PIPES, 1 mM Na₃VO₄, 1 mM EGTA, 50 mM Tris-HCl, 150 mM NaCl, 50 mM NaF, 1% CHAPS, and 10% glycerol) supplemented with protease inhibitor cocktail (Roche), phosphatase inhibitor cocktail 3 (Sigma). Three vig of indicated antibody was pre-coated with 100 μL M-280 Dynabeads (lnvitrogen) overnight at 4° C. The 500 μg cell extracts were incubated with 15 μL antibody-coated Dynabeads at 4° C. overnight. The protein-bead complex was then washed with Tris-buffered saline Tween 20 (TBST) buffer and subjected to Western blot analysis.

[1] = target: T2, endogenous TIFA (U937 cells) (Homo sapiens, UniProt Q96CG3 1-184); assay: anti-Myc immunoprecipitation from lysates of transduced U937 cells, western blot
T2 construct: Endogenous protein of U937 cells
T2 sequence: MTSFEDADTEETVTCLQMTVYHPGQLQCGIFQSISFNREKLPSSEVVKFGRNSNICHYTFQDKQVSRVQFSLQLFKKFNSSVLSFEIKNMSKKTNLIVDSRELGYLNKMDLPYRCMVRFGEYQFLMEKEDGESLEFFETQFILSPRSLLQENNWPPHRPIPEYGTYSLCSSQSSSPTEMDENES
From the text: AML lines were respectively infected with pseudotyped retroviruses carrying these constructs to generate stable cells. […] (FIG. 5C) Lysates from U937 cells stably expressing TIFA fragments shown in (FIG. 5B) were immunoprecipitated using anti-Myc immunobeads and analyzed by western blot.
We designed to fine-map the minimal effective region for molecular targeting of TIFA in AML cells through retroviral transduction (FIG. 5B).

B1: HA-tagged TIFA (full-length TIFA wild-type) (other)
chain: T2 sequence
notes: Expressed in 293T cells from pCDNA3.1. 'full-length TIFA wild-type following a synthesized HA-tag' is read here as an N-terminal tag; also called HA-TIFA; not shown: synthesized HA-tag
- binding result (Aurora A): binds

B2: TIFA fragment F1F2 with two consecutive Myc-tags (peptide)
chain: MTSFEDADTEETVTCLQMTVYHPGQLQCGIFQSISFNREKLPSSEVVKFGRNSNICHYTFQDKQVSRVQFSLQLFKKFNSSVLSFEIKNMSKKTNLIVDSREL
notes: Stably expressed in U937 cells by retroviral transduction (pLNCX); also called F1-F2 peptide fragment; DN fragment; not shown: two consecutive Myc-tags (2Myc)
- binding result [1]: binds

B3: TIFA fragment F2F3 with two consecutive Myc-tags (peptide)
chain: VVKFGRNSNICHYTFQDKQVSRVQFSLQLFKKFNSSVLSFEIKNMSKKTNLIVDSRELGYLNKMDLPYRCMVRFGEYQFLMEKEDGESLEFFETQFILSPRSLLQENNWPPHRPIPEYGTYSLCSSQSSSPTEMDENES
notes: Stably expressed in U937 cells by retroviral transduction (pLNCX); also called F2-F3 peptide fragment; DN fragment; not shown: two consecutive Myc-tags (2Myc)
- binding result [1]: binds
